According to patent US20040180417:

Experiments:
[1] = target: [proBACES]FG/V5, doubly tagged soluble form of mouse proBACE
[2] = target: T1, PC cleavage site-spanning peptide of proBACE
T1 chain: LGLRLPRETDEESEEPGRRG

[3] = target: T2, 20 aa synthetic peptide spanning the β-secretase cleavage site of βAPPSW
T2 chain: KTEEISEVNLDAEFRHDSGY

B1: rat PC7 (protein)
chain: SIHFNDPKYPQQWHLNNRRSPGRDINVTGVWERNVTGRGVTVVVVDDGVEHTVQDIAPNYSPEGSYDLNSNDPDPMPHPDEENGNHHGTRCAGEIAAVPNNSFCAVGVAYGSRIAGIRVLDGPLTDSMEAVAFNKHYQINDIYSCSWGPDDDGKTVDGPHQLGKAALQHGVMAGRQGFGSIFVVASGNGGQHNDNCNYDGYANSIYTVTIGAVDEEGRMPFYAEECASMLAVTFSGGDKMLRSIVTTDWDLQKGTGCTEGHTGTSAAAPLAAGMIALMLQVRPCLTWRDVQHIIVFTATQYEDHRADWLTNEAGFSHSHQHGFGLLNAWRLVNAAKIWTSVPYLASYVSPMLKENKAVPRSPHSLEVLWNVSRTDLEMSGLKTLEHVAVTVSITHPRRGSLELKLFCPSGMMSLIGAPRSMDSDPNGFNDWTFSTVRCWGERARGVYRLVIRDVGDEPLQVGILQQWQLTLYGSTWSPVDIKDRQSLLESAMSGKYLHDDFTLPCPPGLKIPEEDGYSITPNTLKT
in vitro processing of the R45A mutant of proBACES, Western blot ([proBACES-R45A]FG/V5): none of the PCs tested could cleave this form | in vitro processing of proBACE into BACE, Western blot with FG or V5 antibodies [1]: PC7 is barely, if at all, able to perform this reaction | cleavage of the peptide spanning the N-terminal furin-consensus site, RP-HPLC and MALDI-TOF [2]: PC7 could barely cleave this sequence, even when a 10-fold excess (as assessed by pERTKR-MCA hydrolysis) of activity was employed

B2: [BACES]V5, soluble mouse BACE ending at Thr454 followed by a V5 epitope (protein)
chain: THLGIRLPLRSGLAGPPLGLRLPRETDEESEEPGRRGSFVEMVDNLRGKSGQGYYVEMTRGQPLTKLNILVDTGSSNFAVGAAPHPFLHRYYQRQLSSTYRDLRKGVYVPYTQGKWEGELGTDLVSIPHGPNVTVRANIAAITESDKFFINGSNWEGILGLAYAEIARPDDSLEPFFDSLVKQTHIPNIFSLQLCGAGFPLNQTEALASVGGSMIIGGIDHSLYTGSLWYTPIRREWYYEVIIVRVEINGQDLKMDCKEYNYDKSIVDSGTTNLRLPKKVFEAAVKSIKAASSTEKFPDGFWLGEQLVCWQAGTTPWNIFPVISLYLMGEVTNQSFRITILPQQYLRPVEDVATSQDDCYKFAVSQSSTGTVMGAVIMEGFYVVFDRARKRIGFAVSACHVHDEFRTAAVEGPFVTADMEDCGYNIPQTDESTGKPIPNPLLGLDST
cleavage of the peptide spanning the N-terminal furin-consensus site [2]: no detectable cleavage of this peptide was observed by either crude or partially purified soluble BACE [BACES]V5 (not shown)

B3: PACE4 (protein)
chain: QVRSDPQALYFNDPIWSNMWYLHCGDKNSRCRSEMNVQAAWKRGYTGKNVVVTILDDGIERNHPDLAPNYDSYASYDVNGNDYDPSPRYDASNENKHGTRCAGEVAASANNSYCIVGIAYNAKIGGIRMLDGDVTDVVEAKSLGIRPNYIDIYSASWGPDDDGKTVDGPGRLAKQAFEYGIKKGRQGLGSIFVWASGNGGREGDYCSCDGYTNSIYTISVSSATENGYKPWYLEECASTLATTYSSGAFYERKIVTTDLRQRCTDGHTGTSVSAPMVAGIIALALEANSQLTWRDVQHLLVKTSRPAHLKASDWKVNGAGHKVSHFYGFGLVDAEALVVEAKKWTAVPSQHMCVAASDKRPRSIPLVQVLRTTALTSACAEHSDQRVVYLEHVVVRTSISHPRRGDLQIYLVSPSGTKSQLLAKRLLDLSNEGFTNWEFMTVHCWGEKAEGQWTLEIQDLPSQVRNPEKQGKLKEWSLILYGTAEHPYHTFSAHQSRSRMLELSAPELEPPKAALSPSQVEVPEDEEDYTAQSTPGSANILQTSVCHPECGDKGCDGPNADQCLNCVHFSLGSVKTSRKCVSVCPLGYFGDTAARRCRRCHKGCETCSSRAATQCLSCRRGFYHHQEMNTCVTLCPAGFYADESQKNCLKCHPSCKKCVDEPEKCTVCKEGFSLARGSCIPDCEPGTYFDSELIRCGECHHTCGTCVGPGREECIHCAKNFHFHDWKCVPACGEGFYPEEMPGLPHKVCRRCDENCLSCAGSSRNCSRCKTGFTQLGTSCITNHTCSNADETFCEMVKSNRLCERKLFIQFCCRTCLLAG
in vitro processing of the R45A mutant of proBACES, Western blot ([proBACES-R45A]FG/V5): none of the PCs tested could cleave this form | in vitro processing of proBACE into BACE, Western blot with FG or V5 antibodies [1]: which was superior to the abilities of PC5 and PACE4 to carry out this cleavage

B4: mouse PC5-A (protein)
chain: DYDLSHAQSTYFNDPKWPSMWYMHCSDNTHPCQSDMNIEGAWKRGYTGKNIVVTILDDGIERTHPDLMQNYDALASCDVNGNDLDPMPRYDASNENKHGTRCAGEVAATANNSHCTVGIAFNAKIGGVRMLDGDVTDMVEAKSVSYNPQHVHIYSASWGPDDDGKTVDGPAPLTRQAFENGVRMGRRGLGSVFVWASGNGGRSKDHCSCDGYTNSIYTISISSTAESGKKPWYLEECSSTLATTYSSGESYDKKIITTDLRQRCTDNHTGTSASAPMAAGIIALALEANPFLTWRDVQHVIVRTSRAGHLNANDWKTNAAGFKVSHLYGFGLMDAEAMVMEAEKWTTVPQQHVCVESTDRQIKTIRPNSAVRSIYKASGCSDNPNHHVNYLEHVVVRITITHPRRGDLAIYLTSPSGTRSQLLANRLFDHSMEGFKNWEFMTIHCWGERAAGDWVLEVYDTPSQLRNFKTPGKLKEWSLVLYGTSVQPYSPTNEFPKVERFRYSRVEDPTDDYGAEDYAGPCDPECSEVGCDGPGPDHCSDCLHYYYKLKNNTRICVSSCPPGHYHADKKRCRKCAPNCESCFGSHGNQCLSCKYGYFLNEETSSCVTQCPDGSYEDIKKNVCGKCSENCKACIGFHNCTECKGGLSLQGSRCSVTCEDGQFFNGHDCQPCHRFCATCSGAGADGCINCTEGYVMEEGRCVQSCSVSYYLDHSSEGGYKSCKRCDNSCLTCNGPGFKNCSSCPSGYLLDLGTCQMGAICKDATEESWAEGGFCMLVKKNNLCQRKVLQQLCCKTCTFQG
in vitro processing of the R45A mutant of proBACES, Western blot ([proBACES-R45A]FG/V5): none of the PCs tested could cleave this form | in vitro processing of proBACE into BACE, Western blot with FG or V5 antibodies [1]: which was superior to the abilities of PC5 and PACE4 to carry out this cleavage | cleavage of the peptide spanning the N-terminal furin-consensus site, RP-HPLC and MALDI-TOF [2]: The best processing rates were observed with furin and PC5 (not shown)

B5: [proBACES]FG/V5, doubly tagged soluble form of mouse proBACE (protein)
chain: DYKDDDDKQGTHLGIRLPLRSGLAGPPLGLRLPRETDEESEEPGRRGSFVEMVDNLRGKSGQGYYVEMTRGQPLTKLNILVDTGSSNFAVGAAPHPFLHRYYQRQLSSTYRDLRKGVYVPYTQGKWEGELGTDLVSIPHGPNVTVRANIAAITESDKFFINGSNWEGILGLAYAEIARPDDSLEPFFDSLVKQTHIPNIFSLQLCGAGFPLNQTEALASVGGSMIIGGIDHSLYTGSLWYTPIRREWYYEVIIVRVEINGQDLKMDCKEYNYDKSIVDSGTTNLRLPKKVFEAAVKSIKAASSTEKFPDGFWLGEQLVCWQAGTTPWNIFPVISLYLMGEVTNQSFRITILPQQYLRPVEDVATSQDDCYKFAVSQSSTGTVMGAVIMEGFYVVFDRARKRIGFAVSACHVHDEFRTAAVEGPFVTADMEDCGYNIPQTDESTGKPIPNPLLGLDST
β-secretase activity of affinity-purified proBACE on the synthetic peptide substrate [3]: the resulting material had no detectable activity unless first pre-incubated with furin
